Test results: patent US20160031996A1 (CSL, published 2016)

Experiments:
[1] = target: T1, human IL-3Rα S59A/P88T double mutant, full length (human, UniProt P26951 19-378); assay: flow cytometry, MFI normalised to WT
T1 chain: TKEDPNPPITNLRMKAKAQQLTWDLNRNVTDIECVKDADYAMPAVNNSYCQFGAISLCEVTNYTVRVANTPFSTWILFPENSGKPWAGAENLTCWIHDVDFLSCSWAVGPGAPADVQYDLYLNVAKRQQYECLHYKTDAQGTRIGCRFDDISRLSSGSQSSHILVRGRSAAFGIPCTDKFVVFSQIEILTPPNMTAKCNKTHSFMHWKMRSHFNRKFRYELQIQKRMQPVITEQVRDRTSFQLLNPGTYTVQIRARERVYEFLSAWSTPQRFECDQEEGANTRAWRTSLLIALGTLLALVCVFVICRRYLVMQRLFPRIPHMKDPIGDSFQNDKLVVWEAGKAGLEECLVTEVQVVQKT
Experimental: (§1) Median fluorescence intensity (MFI) of each antibody was determined for WT IL-3Rα and for each IL-3Rα mutant. The MFI of WT IL-3Rα staining for each antibody was set as 100% then the MFI of each mutant was normalized to a percent of WT staining.

[2] = target: T2, human IL-3Rα E51Q/S59A double mutant, full length (human, UniProt P26951 19-378); assay: flow cytometry, MFI normalised to WT
T2 chain: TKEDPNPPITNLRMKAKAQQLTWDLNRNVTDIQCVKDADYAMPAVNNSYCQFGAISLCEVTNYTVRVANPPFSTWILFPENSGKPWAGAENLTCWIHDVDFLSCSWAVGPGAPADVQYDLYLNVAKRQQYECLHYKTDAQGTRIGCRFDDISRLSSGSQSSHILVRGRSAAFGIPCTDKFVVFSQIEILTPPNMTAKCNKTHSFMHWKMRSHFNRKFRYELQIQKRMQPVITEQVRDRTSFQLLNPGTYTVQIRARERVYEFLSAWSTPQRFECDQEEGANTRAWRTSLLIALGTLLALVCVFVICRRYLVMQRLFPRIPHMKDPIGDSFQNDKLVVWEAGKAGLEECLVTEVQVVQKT
Experimental: as §1

[3] = target: T3, human IL-3Rα E51Q/S59A/P88T triple mutant, full length (human, UniProt P26951 19-378); assay: flow cytometry, MFI normalised to WT
T3 chain: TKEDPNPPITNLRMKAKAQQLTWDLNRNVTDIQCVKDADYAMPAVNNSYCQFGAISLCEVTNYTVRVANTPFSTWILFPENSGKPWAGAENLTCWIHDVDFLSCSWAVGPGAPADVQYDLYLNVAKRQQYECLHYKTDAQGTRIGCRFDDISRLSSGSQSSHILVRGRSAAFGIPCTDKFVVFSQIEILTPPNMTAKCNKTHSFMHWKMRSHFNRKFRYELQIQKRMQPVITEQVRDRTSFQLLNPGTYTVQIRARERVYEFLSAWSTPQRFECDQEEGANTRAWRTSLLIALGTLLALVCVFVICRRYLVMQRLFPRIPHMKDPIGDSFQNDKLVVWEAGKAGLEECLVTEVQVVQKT
Experimental: as §1

[4] = target: T4, human IL-3Rα E51Q/P88T double mutant, full length (human, UniProt P26951 19-378); assay: flow cytometry, MFI normalised to WT
T4 chain: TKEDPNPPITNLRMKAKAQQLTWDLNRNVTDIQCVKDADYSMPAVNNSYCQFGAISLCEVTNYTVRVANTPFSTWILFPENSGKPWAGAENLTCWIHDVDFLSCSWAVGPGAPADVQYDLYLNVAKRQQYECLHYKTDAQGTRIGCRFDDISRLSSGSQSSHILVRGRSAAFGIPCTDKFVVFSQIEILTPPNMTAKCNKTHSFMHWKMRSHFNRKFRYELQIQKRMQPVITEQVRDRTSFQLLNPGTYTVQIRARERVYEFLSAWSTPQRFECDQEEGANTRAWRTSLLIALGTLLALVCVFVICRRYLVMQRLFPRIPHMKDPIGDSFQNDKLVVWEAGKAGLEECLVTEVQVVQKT
Experimental: as §1

[5] = target: T5, human IL-3Rα I94A, full length (human, UniProt P26951 19-378); assay: Western blot, whole cell extracts of 293F cells
T5 construct: expressed in 293F cells; Western blot of whole cell extracts; also called I94, cell surface alanine
T5 sequence: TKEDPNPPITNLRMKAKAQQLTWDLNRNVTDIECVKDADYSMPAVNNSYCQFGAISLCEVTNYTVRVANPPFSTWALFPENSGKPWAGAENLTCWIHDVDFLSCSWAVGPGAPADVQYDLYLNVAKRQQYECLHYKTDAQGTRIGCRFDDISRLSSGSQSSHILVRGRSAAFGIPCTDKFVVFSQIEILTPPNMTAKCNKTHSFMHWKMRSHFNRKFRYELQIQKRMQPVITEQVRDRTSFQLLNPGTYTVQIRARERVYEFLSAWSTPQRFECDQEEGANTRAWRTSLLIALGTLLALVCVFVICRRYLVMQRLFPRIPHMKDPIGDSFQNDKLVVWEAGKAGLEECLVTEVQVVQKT

[6] = target: T6, full length human IL-3Rα, wild type (human, UniProt P26951 19-378); assay: flow cytometry, MFI normalised to WT (reference, set as 100%)
T6 construct: expressed in 293F cells; also called WT
T6 sequence: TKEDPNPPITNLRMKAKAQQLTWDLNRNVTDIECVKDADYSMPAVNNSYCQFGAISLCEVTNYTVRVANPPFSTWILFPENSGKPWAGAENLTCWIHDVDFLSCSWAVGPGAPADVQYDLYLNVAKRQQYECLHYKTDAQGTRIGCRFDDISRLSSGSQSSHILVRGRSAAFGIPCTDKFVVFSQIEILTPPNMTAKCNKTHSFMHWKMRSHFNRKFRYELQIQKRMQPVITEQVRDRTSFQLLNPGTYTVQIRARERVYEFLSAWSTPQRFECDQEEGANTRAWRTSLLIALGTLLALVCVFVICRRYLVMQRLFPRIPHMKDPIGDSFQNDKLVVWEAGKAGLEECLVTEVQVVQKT
Experimental: as §1

B1: antibody CSL362 (antibody, V domains shown)
VH: EVQLVQSGAEVKKPGESLKISCKGSGYSFTDYYMKWARQMPGKGLEWMGDIIPSNGATFYNQKFKGQVTISADKSISTTYLQWSSLKASDTAMYYCARSHLLRASWFAYWGQGTMVTVSS
VL: DIVMTQSPDSLAVSLGERATINCESSQSLLNSGNQKNYLTWYQQKPGQPPKPLIYWASTRESGVPDRFSGSGSGTDFTLTISSLQAEDVAVYYCQNDYSYPYTFGQGTKLEIKR
Question: Which results are given for B1?
Answer: MFI as percent of WT staining [1]: 5 % of WT MFI; MFI as percent of WT staining [2]: 2.4 % of WT MFI; MFI as percent of WT staining [3]: 2.9 % of WT MFI; MFI as percent of WT staining [4]: 2.5 % of WT MFI

B2: monoclonal antibody 7G3 (antibody, V domains shown)
VH: EVQLQQSGPELVKPGASVKMSCKASGYTFTDYYMKWVKQSHGKSLEWIGDIIPSNGATFYNQKFKGKATLTVDRSSSTAYMHLNSLTSEDSAVYYCTRSHLLRASWFAYWGQGTLVTVSA
VL: DFVMTQSPSSLTVTAGEKVTMSCKSSQSLLNSGNQKNYLTWYLQKPGQPPKLLIYWASTRESGVPDRFTGSGSGTDFTLTISSVQAEDLAVYYCQNDYSYPYTFGGGTKLEIKR
notes: mouse monoclonal antibody (hybridoma ATCC HB-12009)
Question: What does the source list for B2?
Answer: binding result [5]: no binding; MFI as percent of WT staining [1]: 3 % of WT MFI; MFI as percent of WT staining [2]: 1.4 % of WT MFI; MFI as percent of WT staining [3]: 1 % of WT MFI; MFI as percent of WT staining [4]: 1.4 % of WT MFI; MFI as percent of WT staining [6]: 100 % of WT MFI
